{"source": "patent US20110256180A1", "about": "(CHILDREN S HOSPITAL AND RESEARCH CENTER AT OAKLAND, published 2011)", "binders": {"B1": {"name": "fHbp ID 28, wild-type (strain M1239, variant group 3, modular group II) (other)", "chain": "CSSGGGGSGGGGVAADIGTGLADALTAPLDHKDKGLKSLTLEDSIPQNGTLTLSAQGAEKTFKAGDKDNSLNTGKLKNDKISRFDFVQKIEVDGQTITLASGEFQIYKQNHSAVVALQIEKINNPDKTDSLINQRSFLVSGLGGEHTAFNQLPGGKAEYHGKAFSSDDPNGRLHYSIDFTKKQGYGRIEHLKTLEQNVELAAAELKADEKSHAVILGDTRYGSEEKGTYHLALFGDRAQEIAGSATVKIGEKVHEIGIAGKQ", "notes": "Recombinant; also called Pep28; peptide 28"}, "B2": {"name": "fHbp ID 28 E197A mutant (other)", "chain": "CSSGGGGSGGGGVAADIGTGLADALTAPLDHKDKGLKSLTLEDSIPQNGTLTLSAQGAEKTFKAGDKDNSLNTGKLKNDKISRFDFVQKIEVDGQTITLASGEFQIYKQNHSAVVALQIEKINNPDKTDSLINQRSFLVSGLGGEHTAFNQLPGGKAEYHGKAFSSDDPNGRLHYSIDFTKKQGYGRIEHLKTLEQNVELAAAALKADEKSHAVILGDTRYGSEEKGTYHLALFGDRAQEIAGSATVKIGEKVHEIGIAGKQ"}, "B3": {"name": "fHbp ID 28 D201A mutant (other)", "chain": "CSSGGGGSGGGGVAADIGTGLADALTAPLDHKDKGLKSLTLEDSIPQNGTLTLSAQGAEKTFKAGDKDNSLNTGKLKNDKISRFDFVQKIEVDGQTITLASGEFQIYKQNHSAVVALQIEKINNPDKTDSLINQRSFLVSGLGGEHTAFNQLPGGKAEYHGKAFSSDDPNGRLHYSIDFTKKQGYGRIEHLKTLEQNVELAAAELKAAEKSHAVILGDTRYGSEEKGTYHLALFGDRAQEIAGSATVKIGEKVHEIGIAGKQ", "notes": "also called D201A (ID 28)"}, "B4": {"name": "fHbp ID 28 E218A mutant (other)", "chain": "CSSGGGGSGGGGVAADIGTGLADALTAPLDHKDKGLKSLTLEDSIPQNGTLTLSAQGAEKTFKAGDKDNSLNTGKLKNDKISRFDFVQKIEVDGQTITLASGEFQIYKQNHSAVVALQIEKINNPDKTDSLINQRSFLVSGLGGEHTAFNQLPGGKAEYHGKAFSSDDPNGRLHYSIDFTKKQGYGRIEHLKTLEQNVELAAAELKADEKSHAVILGDTRYGSEAKGTYHLALFGDRAQEIAGSATVKIGEKVHEIGIAGKQ", "notes": "also called E218A (ID 28)"}, "B5": {"name": "fHbp ID 28 K245A mutant (other)", "chain": "CSSGGGGSGGGGVAADIGTGLADALTAPLDHKDKGLKSLTLEDSIPQNGTLTLSAQGAEKTFKAGDKDNSLNTGKLKNDKISRFDFVQKIEVDGQTITLASGEFQIYKQNHSAVVALQIEKINNPDKTDSLINQRSFLVSGLGGEHTAFNQLPGGKAEYHGKAFSSDDPNGRLHYSIDFTKKQGYGRIEHLKTLEQNVELAAAELKADEKSHAVILGDTRYGSEEKGTYHLALFGDRAQEIAGSATVKIGEAVHEIGIAGKQ"}, "B6": {"name": "fHbp ID 14 (natural variant, variant group 1, modular group I) (other)", "chain": "CSSGGGGVAADIGAGLADALTAPLDHKDKSLQSLTLDQSVRKNEKLKLAAQGAEKTYGNGDSLNTGKLKNDKVSRFDFIRQIEVDGQLITLESGEFQVYKQSHSALTALQTEQEQDPEHSGKMVAKRRFKIGDIAGEHTSFDKLPKDVMATYRGTAFGSDDAGGKLTYTIDFAAKQGHGKIEHLKSPELNVELATAYIKPDEKHHAVISGSVLYNQDEKGSYSLGIFGGQAQEVAGSAEVETANGIHHIGLAAKQ", "notes": "Recombinant"}, "B7": {"name": "fHbp ID 15 E241K mutant (other)", "chain": "CSSGGGGSGGGGVAADIGAGLADALTAPLDHKDKGLKSLTLEDSISQNGTLTLSAQGAERTFKAGDKDNSLNTGKLKNDKISRFDFIRQIEVDGQLITLESGEFQVYKQSHSALTALQTEQVQDSEHSGKMVAKRQFRIGDIVGEHTSFGKLPKDVMATYRGTAFGSDDAGGKLTYTIDFAAKQGHGKIEHLKSPELNVDLAAADIKPDEKHHAVISGSVLYNQAEKGSYSLGIFGGQAQEVAGSAEVKTANGIRHIGLAAKQ"}, "B8": {"name": "fHbp chimera I R41S mutant (other)", "chain": "CSSGGGGVAADIGAGLADALTAPLDHKDKGLQSLTLDQSVSKNEKLKLAAQGAEKTYGNGDSLNTGKLKNDKVSRFDFIRQIEVDGQLITLESGEFQVYKQSHSALTAFQTEQIQDSEHSGKMVAKRQFRIGDIAGEHTAFNQLPDGKAEYHGKAFSSDDAGGKLTYTIDFAAKQGHGKIEHLKTPEQNVELAAAELKADEKSHAVILGDTRYGSEEKGTYHLALFGDRAQEIAGSATVKIGEKVHEIGIAGKQ", "notes": "Recombinant; also called R41S mutant of the fHbp chimera I"}, "B9": {"name": "fHbp ID 22 A235G mutant (other)", "chain": "CSSGGGGVAADIGAGLADALTAPLDHKDKSLQSLTLDQSVRKNEKLKLAAQGAEKTYGNGDSLNTGKLKNDKVSRFDFIRQIEVDGQLITLESGEFQIYKQDHSAVVALQIEKINNPDKIDSLINQRSFLVSGLGGEHTAFNQLPSGKAEYHGKAFSSDDPNGRLHYSIDFTKKQGYGRIEHLKTPEQNVELASAELKADEKSHAVILGDTRYGGEEKGTYHLALFGDRAQEIGGSATVKIREKVHEIGIAGKQ"}, "B10": {"name": "fHbp ID 22 E202A mutant (other)", "chain": "CSSGGGGVAADIGAGLADALTAPLDHKDKSLQSLTLDQSVRKNEKLKLAAQGAEKTYGNGDSLNTGKLKNDKVSRFDFIRQIEVDGQLITLESGEFQIYKQDHSAVVALQIEKINNPDKIDSLINQRSFLVSGLGGEHTAFNQLPSGKAEYHGKAFSSDDPNGRLHYSIDFTKKQGYGRIEHLKTPEQNVELASAELKADAKSHAVILGDTRYGGEEKGTYHLALFGDRAQEIAGSATVKIREKVHEIGIAGKQ"}, "B11": {"name": "fHbp ID 22 R41S mutant (other)", "chain": "CSSGGGGVAADIGAGLADALTAPLDHKDKSLQSLTLDQSVSKNEKLKLAAQGAEKTYGNGDSLNTGKLKNDKVSRFDFIRQIEVDGQLITLESGEFQIYKQDHSAVVALQIEKINNPDKIDSLINQRSFLVSGLGGEHTAFNQLPSGKAEYHGKAFSSDDPNGRLHYSIDFTKKQGYGRIEHLKTPEQNVELASAELKADEKSHAVILGDTRYGGEEKGTYHLALFGDRAQEIAGSATVKIREKVHEIGIAGKQ", "notes": "also called R41S (ID 22)"}, "B12": {"name": "fHbp ID 22 D201A mutant (other)", "chain": "CSSGGGGVAADIGAGLADALTAPLDHKDKSLQSLTLDQSVRKNEKLKLAAQGAEKTYGNGDSLNTGKLKNDKVSRFDFIRQIEVDGQLITLESGEFQIYKQDHSAVVALQIEKINNPDKIDSLINQRSFLVSGLGGEHTAFNQLPSGKAEYHGKAFSSDDPNGRLHYSIDFTKKQGYGRIEHLKTPEQNVELASAELKAAEKSHAVILGDTRYGGEEKGTYHLALFGDRAQEIAGSATVKIREKVHEIGIAGKQ", "notes": "also called D201A (ID 22)"}, "B13": {"name": "fHbp ID 22 Q126A mutant (other)", "chain": "CSSGGGGVAADIGAGLADALTAPLDHKDKSLQSLTLDQSVRKNEKLKLAAQGAEKTYGNGDSLNTGKLKNDKVSRFDFIRQIEVDGQLITLESGEFQIYKQDHSAVVALQIEKINNPDKIDSLINARSFLVSGLGGEHTAFNQLPSGKAEYHGKAFSSDDPNGRLHYSIDFTKKQGYGRIEHLKTPEQNVELASAELKADEKSHAVILGDTRYGGEEKGTYHLALFGDRAQEIAGSATVKIREKVHEIGIAGKQ"}, "B14": {"name": "fHbp ID 22 Q38A mutant (other)", "chain": "CSSGGGGVAADIGAGLADALTAPLDHKDKSLQSLTLDASVRKNEKLKLAAQGAEKTYGNGDSLNTGKLKNDKVSRFDFIRQIEVDGQLITLESGEFQIYKQDHSAVVALQIEKINNPDKIDSLINQRSFLVSGLGGEHTAFNQLPSGKAEYHGKAFSSDDPNGRLHYSIDFTKKQGYGRIEHLKTPEQNVELASAELKADEKSHAVILGDTRYGGEEKGTYHLALFGDRAQEIAGSATVKIREKVHEIGIAGKQ"}, "B15": {"name": "fHbp ID 77 D121A mutant (other)", "chain": "CSSGGGGVAADIGARLADALTAPLDHKDKSLQSLTLDQSVRKNEKLKLAAQGAEKTYGNGDSLNTGKLKNDKVSRFDFIRQIEVDGQLITLESGEFQIYKQDHSAVVALQIEKINNPDKIASLINQRSFLVSGLGGEHTAFNQLPDGKAEYHGKAFSSDDAGGKLTYTIDFAAKQGHGKIEHLKTPEQNVELAAAELKADEKSHAVILGDTRYGSEEKGTYHLALFGDRAQEIAGSATVKIGEKVHEIGIAGKQ"}, "B16": {"name": "fHbp ID 77 K113A mutant (other)", "chain": "CSSGGGGVAADIGARLADALTAPLDHKDKSLQSLTLDQSVRKNEKLKLAAQGAEKTYGNGDSLNTGKLKNDKVSRFDFIRQIEVDGQLITLESGEFQIYKQDHSAVVALQIEAINNPDKIDSLINQRSFLVSGLGGEHTAFNQLPDGKAEYHGKAFSSDDAGGKLTYTIDFAAKQGHGKIEHLKTPEQNVELAAAELKADEKSHAVILGDTRYGSEEKGTYHLALFGDRAQEIAGSATVKIGEKVHEIGIAGKQ"}, "B17": {"name": "fHbp ID 77 R41S mutant (other)", "chain": "CSSGGGGVAADIGARLADALTAPLDHKDKSLQSLTLDQSVSKNEKLKLAAQGAEKTYGNGDSLNTGKLKNDKVSRFDFIRQIEVDGQLITLESGEFQIYKQDHSAVVALQIEKINNPDKIDSLINQRSFLVSGLGGEHTAFNQLPDGKAEYHGKAFSSDDAGGKLTYTIDFAAKQGHGKIEHLKTPEQNVELAAAELKADEKSHAVILGDTRYGSEEKGTYHLALFGDRAQEIAGSATVKIGEKVHEIGIAGKQ", "notes": "also called R41S (ID 77)"}, "B18": {"name": "fHbp ID 77 K113A/D121A double mutant (other)", "chain": "CSSGGGGVAADIGARLADALTAPLDHKDKSLQSLTLDQSVRKNEKLKLAAQGAEKTYGNGDSLNTGKLKNDKVSRFDFIRQIEVDGQLITLESGEFQIYKQDHSAVVALQIEAINNPDKIASLINQRSFLVSGLGGEHTAFNQLPDGKAEYHGKAFSSDDAGGKLTYTIDFAAKQGHGKIEHLKTPEQNVELAAAELKADEKSHAVILGDTRYGSEEKGTYHLALFGDRAQEIAGSATVKIGEKVHEIGIAGKQ"}}, "key": {"[1]": {"molecular_target": "T1, human complement factor H (human, UniProt P08603 19-1231)", "T1 construct": "also called human fH; fH", "T1 sequence (P08603 19-1231 limits assumed)": "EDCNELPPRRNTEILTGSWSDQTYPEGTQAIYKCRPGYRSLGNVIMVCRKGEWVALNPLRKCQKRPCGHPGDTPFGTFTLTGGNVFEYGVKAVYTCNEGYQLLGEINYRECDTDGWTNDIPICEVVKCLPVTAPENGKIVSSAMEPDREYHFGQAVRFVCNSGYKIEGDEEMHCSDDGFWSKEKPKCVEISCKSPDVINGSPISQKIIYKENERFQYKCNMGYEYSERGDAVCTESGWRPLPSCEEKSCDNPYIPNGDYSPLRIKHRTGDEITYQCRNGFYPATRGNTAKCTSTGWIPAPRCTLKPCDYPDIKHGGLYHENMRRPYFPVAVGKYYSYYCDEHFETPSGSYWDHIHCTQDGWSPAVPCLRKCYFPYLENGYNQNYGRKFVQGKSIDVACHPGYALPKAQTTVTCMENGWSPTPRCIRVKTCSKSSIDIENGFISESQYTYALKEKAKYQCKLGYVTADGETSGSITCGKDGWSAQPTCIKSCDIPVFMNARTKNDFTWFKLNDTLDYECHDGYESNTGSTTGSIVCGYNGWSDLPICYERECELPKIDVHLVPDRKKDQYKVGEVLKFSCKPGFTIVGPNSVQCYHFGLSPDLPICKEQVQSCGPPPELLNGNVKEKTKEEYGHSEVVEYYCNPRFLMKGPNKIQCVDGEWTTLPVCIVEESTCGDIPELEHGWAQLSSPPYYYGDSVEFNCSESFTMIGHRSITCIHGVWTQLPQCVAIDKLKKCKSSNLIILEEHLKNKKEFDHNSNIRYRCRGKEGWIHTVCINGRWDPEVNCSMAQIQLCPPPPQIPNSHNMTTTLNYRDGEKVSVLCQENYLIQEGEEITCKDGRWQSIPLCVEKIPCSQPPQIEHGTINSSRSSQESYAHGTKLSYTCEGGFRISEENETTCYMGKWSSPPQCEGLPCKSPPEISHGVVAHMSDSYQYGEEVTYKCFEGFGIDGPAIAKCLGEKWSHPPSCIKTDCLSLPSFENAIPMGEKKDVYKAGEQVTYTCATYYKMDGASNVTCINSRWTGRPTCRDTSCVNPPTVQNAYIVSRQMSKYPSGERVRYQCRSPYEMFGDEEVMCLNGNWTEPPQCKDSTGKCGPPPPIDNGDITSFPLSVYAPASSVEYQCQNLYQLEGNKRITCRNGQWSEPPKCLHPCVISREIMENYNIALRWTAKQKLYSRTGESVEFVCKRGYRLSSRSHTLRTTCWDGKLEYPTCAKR", "test": "ELISA, fHbp on plate"}, "[2]": {"molecular_target": "T1, human complement factor H", "test": "ELISA, vs respective wildtype fHbp"}}}
{"binder": "B1", "values": [{"measurement": "binding result", "setting": "[1]", "value": "binds"}]}
{"binder": "B2", "values": [{"measurement": "binding result", "setting": "[1]", "value": "binds"}]}
{"binder": "B3", "values": [{"measurement": "binding result", "setting": "[1]", "value": "binds"}]}
{"binder": "B4", "values": [{"measurement": "binding result", "setting": "[1]", "value": "binds"}]}
{"binder": "B5", "values": [{"measurement": "binding result", "setting": "[1]", "value": "binds"}]}
{"binder": "B6", "values": [{"measurement": "binding result", "setting": "[1]", "value": "binds"}]}
{"binder": "B7", "values": [{"measurement": "fold effect on fH binding relative to wildtype fHbp", "setting": "[1]", "value": "< 2", "unit": "fold"}, {"measurement": "Fold-Decrease in fH binding", "setting": "[2]", "value": 0, "unit": "fold"}]}
{"binder": "B8", "values": [{"measurement": "binding result", "setting": "[1]", "value": "no binding"}]}
{"binder": "B9", "values": [{"measurement": "Fold-Decrease in fH binding", "setting": "[2]", "value": 0, "unit": "fold"}]}
{"binder": "B10", "values": [{"measurement": "Fold-Decrease in fH binding", "setting": "[2]", "value": 0, "unit": "fold"}]}
{"binder": "B11", "values": [{"measurement": "fold reduction in fH binding vs wildtype fHbp ID 22", "setting": "[1]", "value": "< 4", "unit": "fold"}, {"measurement": "Fold-Decrease in fH binding", "setting": "[2]", "value": 0, "unit": "fold"}]}
{"binder": "B12", "values": [{"measurement": "Fold-Decrease in fH binding", "setting": "[2]", "value": 0, "unit": "fold"}]}
{"binder": "B13", "values": [{"measurement": "fold reduction in fH binding vs wildtype fHbp ID 22", "setting": "[1]", "value": "< 4", "unit": "fold"}, {"measurement": "Fold-Decrease in fH binding", "setting": "[2]", "value": 0, "unit": "fold"}]}
{"binder": "B14", "values": [{"measurement": "fold reduction in fH binding vs wildtype fHbp ID 22", "setting": "[1]", "value": "< 4", "unit": "fold"}, {"measurement": "Fold-Decrease in fH binding", "setting": "[2]", "value": 0, "unit": "fold"}]}
{"binder": "B15", "values": [{"measurement": "fold decrease in fH binding compared with wildtype fHbp ID 77", "setting": "[1]", "value": "~4", "unit": "fold"}, {"measurement": "Fold-Decrease in fH binding", "setting": "[2]", "value": 0, "unit": "fold"}]}
{"binder": "B16", "values": [{"measurement": "Fold-Decrease in fH binding", "setting": "[2]", "value": 0, "unit": "fold"}]}
{"binder": "B17", "values": [{"measurement": "Fold-Decrease in fH binding", "setting": "[2]", "value": 0, "unit": "fold"}]}
{"binder": "B18", "values": [{"measurement": "fold decreased binding of fH", "setting": "[1]", "value": "~10", "unit": "fold"}]}
